{"source": "paper PMC4066776", "target": "S. pneumoniae RecA lacking the first 28 residues (Δ28), purified (S. pneumoniae) (UniProt P0A451)", "assay": "SEC-MALS; purified Δ28RecA; details in Supplementary Results and Supplementary Figure S5"}
{"substance": "S. pneumoniae RecA lacking the first 28 residues (Δ28), purified (from UniProt P0A451 29-388) (domain or fragment)", "values": [{"measurement": "stoichiometry N", "value": 2}]}
